Key:
LSR = LSR activity (oleate-induced 125I-LDL binding, uptake, degradation) in primary cultures of rat hepatocytes; type: cell-based
Protocol: FIGS. 6A, 6B, and 6C show the effect of leptin on ^125I-LDL and ^125I-chylomicron binding to LSR in primary cultures of rat hepatocytes. For FIG. 6A, primary cultures of rat hepatocytes (48 hours after plating) were incubated at 37° C. for 30 min in the absence (□) or presence (▪) of 50 ng/mL leptin in Buffer A, followed by a 20 min incubation at 37° C. with 0.5 mM oleate. The cells were then washed with ice-cold PBS, precooled for 10 min, and then incubated for 1 h at 4° C. with increasing concentrations of ^125I-LDL in Buffer A. Cells were washed, were lysed in 0.1 N NaOH and were counted for radioactivity. Results are shown as the mean of duplicate determinations. […] The media was recovered and the radioactivity was measured. […] The amount of ^125I-chylomicrons bound was determined, and results are shown as means±SD of triplicate (irrelevant) or quadruplicate (anti-LSR) determinations.
(§1) FIGS. 7A and 7B show a comparison of the effect of human and mouse leptin on LSR activity in rat hepatocytes and on postprandial increase in plasma TG in db^Pas/db^Pas mice. […] The media were removed and were analyzed for TCA-soluble degradation products. […] The data represent the difference in TG concentrations measured at t=0 and the average of the concentrations at 3 and 4 hours. […]

db^Pas/db^Pas mice = experiment: Postprandial plasma TG response after high-fat test meal in db^Pas/db^Pas mice; type: in vivo, mouse; conditions: 0.25 μg/animal i.p.
Protocol: FIGS. 1A and 1B show the effect of leptin on postprandial plasma TG response in db/db and db^Pas/db^Pas mice. Overnight-fasted db/db (A), db^Pas/db^Pas (B) mice were gavage-fed a high-fat test meal and immediately injected intravenously (db/db) or intraperitoneally (db^Pas/db^Pas) with saline (open symbols) or 50 μg mouse recombinant leptin (closed symbols). At the indicated times, blood was collected from the tail (A) or orbital (B) vein, plasma was separated by centrifugation, and plasma TG concentrations were determined using an enzymatic kit. Each point represents the mean±SEM (db/db: saline, n=4, leptin, n=3; db^Pas/db^Pas: saline, n=6, leptin, n=7). […] The plasma lipid response was then measured as in A and B. The area under the response curve (AUC) was then calculated using a triangulation method on Microsoft Excel between 0 and 4 hr (mg TG·h/mL). […]
as §1

B1: mouse leptin: recombinant mouse leptin, laboratory-prepared or commercial (Sigma, Calbiochem) (protein, UniProt P41160 22-167, looked up)
Leptin: VPIQKVQDDTKTLIKTIVTRINDISHTQSVSAKQRVTGLDFIPGLHPILSLSKMDQTLAVYQQVLTSLPSQNVLQIANDLENLRDLLHLLAFSKSCSLPQTSGLQKPESLDGVLEASLYSTEVVALSRLQGSLQDILQQLDVSPEC
LSR; 10 ng/mL recombinant leptin
  stimulation of LSR-mediated LDL degradation in primary cultures of rat hepatocytes: more efficient than human leptin
LSR; rat hepatocytes, 30 min preincubation with 20 ng/mL at 37° C., binding at 4° C.
  oleate-induced 125I-LDL binding to the cell surface: increased
db^Pas/db^Pas mice
  postprandial plasma TG response: pronounced effect
